± gives the uncertainty stated by the source.
B1: Ankyrin-2, residues 3571 to 3650; numbered along this chain, Q01484 (parent)
chain: ERLAYIADHLGFSWTELARELDFTEEQIHQIRIENPNSLQDQSHALLKYWLERDGKHATDTNLVECLTKINRMDIVHLME

Variants of: B1
Experiment: abundance fitness (aPCA) (normalised: wild type 0, dead -1); higher = more abundant; growth selection in yeast, the domain comes from the species named
Conditions: Homo sapiens

Abundance fitness, by site and new letter:
D8: G -0.116 ± 0.12 | I -0.237 ± 0.41 | K -0.006 ± 0.17 | L 0.052 ± 0.09 | P 0.011 ± 0.12 | Q 0.234 ± 0.26 | R 0.031 ± 0.11 | S 0.051 ± 0.17 | T 0.088 ± 0.21 | V -0.232 ± 0.11 | W -0.342 ± 0.39
H9: A -0.113 ± 0.24 | C 0.006 ± 0.4 | D 0.021 ± 0.088 | G -0.025 ± 0.2 | K -0.232 ± 0.34 | L -0.02 ± 0.2 | P -0.268 ± 0.17 | R -0.032 ± 0.22 | T -0.33 ± 0.24 | V -0.043 ± 0.38 | Y -0.409 ± 0.4
L10: A -0.64 ± 0.099 | C -0.184 ± 0.11 | D -0.509 ± 0.2 | G -0.704 ± 0.051 | H -0.948 ± 0.37 | K -0.911 ± 0.37 | M -0.205 ± 0.11 | P -0.819 ± 0.11 | Q -0.791 ± 0.28 | R -1.09 ± 0.16 | S -0.668 ± 0.07 | V -0.014 ± 0.08 | W -0.498 ± 0.13 | Y -0.464 ± 0.14
G11: A -0.058 ± 0.064 | C -0.106 ± 0.092 | D -0.052 ± 0.12 | F -0.039 ± 0.12 | H -0.111 ± 0.15 | I -0.271 ± 0.28 | K -0.054 ± 0.13 | L -0.117 ± 0.058 | M -0.223 ± 0.14 | N 0.336 ± 0.39 | P -0.536 ± 0.076 | Q -0.006 ± 0.079 | R -0.074 ± 0.063 | S 0.015 ± 0.054 | T -0.141 ± 0.072 | W -0.277 ± 0.099 | Y -0.123 ± 0.18
F12: A 0.038 ± 0.079 | C -0.04 ± 0.13 | D -0.312 ± 0.24 | E -0.191 ± 0.15 | G 0.005 ± 0.068 | H -0.128 ± 0.2 | I 0.019 ± 0.17 | K -0.143 ± 0.14 | L -0.068 ± 0.072 | M 0.028 ± 0.16 | N -0.158 ± 0.2 | P -0.168 ± 0.13 | Q -0.132 ± 0.25 | R -0.041 ± 0.063 | S 0.063 ± 0.096 | T -0.031 ± 0.08 | V -0.045 ± 0.076 | W 0.005 ± 0.092 | Y -0.195 ± 0.25
S13: A -0.097 ± 0.081 | C -0.25 ± 0.19 | F -0.036 ± 0.1 | G -0.035 ± 0.074 | K -0.224 ± 0.14 | L -0.306 ± 0.11 | M -0.129 ± 0.18 | P -0.291 ± 0.11 | Q 0.059 ± 0.17 | R -0.077 ± 0.084 | V -0.214 ± 0.099 | W -0.17 ± 0.094 | Y -0.228 ± 0.2
W14: A -0.572 ± 0.089 | C -0.63 ± 0.13 | E -1.13 ± 0.25 | F -0.199 ± 0.17 | G -0.978 ± 0.13 | H -0.842 ± 0.43 | K -1 ± 0.41 | L -0.268 ± 0.077 | M -0.394 ± 0.18 | N -0.348 ± 0.23 | P -0.958 ± 0.19 | Q -0.999 ± 0.43 | R -0.994 ± 0.16 | S -0.812 ± 0.12 | V -0.283 ± 0.058 | Y -0.31 ± 0.32
T15: A -0.02 ± 0.055 | C -0.062 ± 0.12 | D -0.195 ± 0.19 | E -0.185 ± 0.15 | F -0.277 ± 0.12 | G -0.042 ± 0.06 | H -0.309 ± 0.2 | K 0.079 ± 0.14 | L 0.036 ± 0.061 | M -0.21 ± 0.13 | N -0.038 ± 0.21 | P 0.01 ± 0.063 | Q -0.083 ± 0.15 | R -0.057 ± 0.059 | S 0.018 ± 0.053 | V -0.009 ± 0.072 | W -0.058 ± 0.077 | Y -0.433 ± 0.43
E16: A -0.037 ± 0.066 | D 0.053 ± 0.12 | F -0.09 ± 0.13 | G -0.065 ± 0.057 | H 0.028 ± 0.17 | I 0.061 ± 0.22 | L 0.032 ± 0.07 | M -0.056 ± 0.11 | N 0.026 ± 0.17 | P -0.233 ± 0.075 | Q 0.202 ± 0.098 | R 0.026 ± 0.054 | S -0.028 ± 0.05 | T 0.038 ± 0.12 | V -0.104 ± 0.091 | W -0.297 ± 0.12
L17: A -0.134 ± 0.076 | C -0.035 ± 0.089 | E -1.05 ± 0.43 | F 0.08 ± 0.12 | G -1.04 ± 0.094 | H -0.91 ± 0.38 | I -0.024 ± 0.18 | M -0.119 ± 0.11 | N -1.15 ± 0.42 | P -1.17 ± 0.2 | R -1.23 ± 0.12 | S -1.03 ± 0.12 | T -0.235 ± 0.086 | V -0.096 ± 0.078 | W -0.692 ± 0.11 | Y -0.478 ± 0.16
A18: D -0.514 ± 0.38 | F -1.07 ± 0.42 | G -0.128 ± 0.1 | L -1.03 ± 0.16 | M -0.519 ± 0.19 | P -1.17 ± 0.22 | R -1.37 ± 0.3 | S -0.196 ± 0.089 | T -0.903 ± 0.35 | V -0.687 ± 0.12 | W -0.859 ± 0.34
R19: A -0.076 ± 0.091 | C -0.089 ± 0.12 | D -0.006 ± 0.18 | E 0.101 ± 0.17 | F -0.195 ± 0.15 | G -0.004 ± 0.057 | H 0.028 ± 0.13 | I 0.049 ± 0.2 | K 0.077 ± 0.11 | L -0.025 ± 0.057 | M 0.083 ± 0.19 | N 0.015 ± 0.16 | P -0.208 ± 0.059 | Q 0.046 ± 0.075 | S -0.101 ± 0.055 | W 0.001 ± 0.075 | Y -0.396 ± 0.44
E20: A -0.118 ± 0.11 | C -0.156 ± 0.25 | D 0.018 ± 0.24 | F -0.098 ± 0.22 | G -0.095 ± 0.07 | L -0.083 ± 0.059 | M 0.089 ± 0.086 | P -0.814 ± 0.093 | Q -0.169 ± 0.15 | R -0.057 ± 0.056 | S -0.076 ± 0.097 | T -0.025 ± 0.072 | V -0.003 ± 0.066 | W -0.156 ± 0.093 | Y -0.1 ± 0.14
L21: A -0.086 ± 0.061 | C -0.488 ± 0.23 | E -0.849 ± 0.14 | F 0.069 ± 0.17 | G -0.072 ± 0.056 | I -0.268 ± 0.17 | K -0.32 ± 0.098 | M -0.107 ± 0.088 | N -0.149 ± 0.45 | Q -0.24 ± 0.095 | S -0.33 ± 0.069 | T -0.412 ± 0.076 | V -0.225 ± 0.077 | W -0.093 ± 0.08
D22: A -0.05 ± 0.066 | C -0.167 ± 0.2 | E -0.217 ± 0.14 | F -0.039 ± 0.097 | G -0.075 ± 0.06 | H -0.017 ± 0.25 | I -0.14 ± 0.35 | K -0.051 ± 0.12 | M -0.075 ± 0.05 | N -0.111 ± 0.14 | Q 0.017 ± 0.095 | S 0.012 ± 0.061 | T -0.048 ± 0.12 | V -0.206 ± 0.066 | W -0.223 ± 0.067 | Y -0.158 ± 0.16
F23: A -0.177 ± 0.092 | C -0.184 ± 0.11 | E -1.17 ± 0.31 | G -1.17 ± 0.19 | H -0.663 ± 0.078 | I 0.047 ± 0.18 | K -0.983 ± 0.41 | L -0.066 ± 0.076 | M -0.021 ± 0.15 | P -1.07 ± 0.22 | Q -0.912 ± 0.18 | R -1.05 ± 0.17 | S -0.575 ± 0.075 | T -0.211 ± 0.12 | V -0.174 ± 0.078 | W -0.442 ± 0.085
T24: A -0.053 ± 0.061 | C -0.193 ± 0.18 | D 0.064 ± 0.17 | E -0.02 ± 0.16 | F -0.053 ± 0.1 | G -0.014 ± 0.057 | H -0.075 ± 0.28 | I -0.154 ± 0.099 | K 0.162 ± 0.17 | L -0.144 ± 0.057 | N -0.005 ± 0.088 | P -0.138 ± 0.059 | Q 0.025 ± 0.17 | R -0.027 ± 0.069 | S -0.025 ± 0.054 | V -0.248 ± 0.079 | W -0.409 ± 0.1 | Y 0.053 ± 0.13
E25: A -0.006 ± 0.054 | C -0.22 ± 0.14 | D 0.016 ± 0.15 | F -0.199 ± 0.12 | G -0.074 ± 0.056 | H -0.072 ± 0.14 | I 0.009 ± 0.22 | K 0.15 ± 0.24 | L -0.062 ± 0.057 | M -0.113 ± 0.074 | N 0.108 ± 0.18 | P 0.021 ± 0.07 | Q -0.01 ± 0.11 | R -0.096 ± 0.062 | S -0.038 ± 0.055 | T -0.065 ± 0.077 | V -0.064 ± 0.056 | Y -0.122 ± 0.12
E26: A -0.087 ± 0.068 | C -0.209 ± 0.092 | D -0.053 ± 0.12 | F -0.282 ± 0.17 | G -0.059 ± 0.046 | H 0.039 ± 0.13 | I -0.045 ± 0.14 | K 0.035 ± 0.1 | L -0.057 ± 0.059 | M -0.041 ± 0.098 | N -0.033 ± 0.11 | P -0.086 ± 0.064 | Q -0.129 ± 0.17 | R -0.068 ± 0.044 | S -0.091 ± 0.057 | T -0.027 ± 0.066 | W -0.105 ± 0.069 | Y -0.118 ± 0.14
Q27: A -0.116 ± 0.081 | E 0.007 ± 0.071 | G -0.144 ± 0.06 | H 0.101 ± 0.14 | I -0.039 ± 0.13 | K 0.051 ± 0.14 | L -0.039 ± 0.066 | M -0.006 ± 0.1 | N 0.08 ± 0.41 | P -0.675 ± 0.097 | R -0.09 ± 0.071 | S 0.006 ± 0.071 | T 0.1 ± 0.12 | V -0.042 ± 0.051 | Y -0.236 ± 0.13
I28: A -0.215 ± 0.078 | D -0.895 ± 0.17 | E -0.171 ± 0.067 | F -0.792 ± 0.18 | G -0.634 ± 0.064 | H -0.668 ± 0.14 | K -0.633 ± 0.32 | L -0.05 ± 0.052 | M -0.064 ± 0.13 | N -0.301 ± 0.14 | P -0.833 ± 0.12 | Q -0.179 ± 0.093 | R -0.22 ± 0.056 | S -0.203 ± 0.073 | T -0.1 ± 0.12 | V -0.056 ± 0.066 | Y -0.225 ± 0.12
H29: A -0.013 ± 0.057 | C -0.07 ± 0.15 | D -0.079 ± 0.18 | E -0.041 ± 0.17 | F 0.062 ± 0.25 | G 0.027 ± 0.065 | I -0.082 ± 0.079 | K -0.004 ± 0.18
